Reference: the DeepSol protein solubility set

assay: soluble on expression in E. coli; label from the status in PepcDB or PDB records

Q: With “MSFVHQKCRNIDTVYLGSNIHRLNVPDNLVKWSQEWSGYNPPAHTDPKVDGAVWADPEIDEKTFQPSWNAIDGKINRVSYVCQYSFDPVTLRPLNPIGRTGLSGRGLLGRWGPNHAADPIVSRTNDNGDLEFVAVQRHDNGEWAIPGGMVDAGEHVSQTLRREFAEEAMHGIVDSENLDELWNNGKELYRGYVDDPRNTDNAWMETVVFNFHDSKGLLKNVALQAGDDAKALRWIAVNSNEPLYASHSHFIDLLKESHSH” as the sequence, how does the “soluble on expression in E. coli” value read?
A: not soluble

Q: For “MSGAGKKIADVAFKASRTIDWDGMAKVLVTDEARREFSNLRRAFDEVNTQLQTKFSQEPEPIDWDYYRKGIGAGIVDKYKEAYDSIEIPKYVDKVTPEYKPKFDALLVELKEAEQKSLKESERLEKEIADVQEISKKLSTMTADEYFEKHPELKKKFDDEIRNDNWGY”, which “soluble on expression in E. coli” value is on record?
A: soluble

Q: With “MSGALFLIPAPLGDETVAWLPEGERAKVVHITHFVVEAEKTARKHLKALGVTTPIRELSMSTLNEHTKETDVAALLAPLQAGHDVGLISEAGCPAVADPGAQLVALAHQRDIRVEPLIGPSSILLALMASGANGQCFAFHGYLPVDAAEKSKLVKELEQRSRKHNETQLFIETPYRNNALLAQLRETLAPSTRLAVACDLTLPTQTIVSHRVQDWPQNPPDLHKRPAIFVIHAALEHHHHHH” as the sequence, how does the “soluble on expression in E. coli” value read?
A: soluble

Q: Which “soluble on expression in E. coli” value does the source give for “MSGFFQRLFGKDNKPAIARGPLGLHLNSGFTLDTLAFRLLEDELLIALPGEEFTVAAVSHIDLGGGSQIFRYYTSGDEFLQINTTGGEDIDDIDDIKLFVYEESYGISKESHWREAINAKAMGAMTLNWQEKRWQRFFNSEEPGNIEPVYMLEKVENQNHAKWEVHNFTMGYQRQVTEDTYEYLLLNGEESFNDLGEPEWLFSRALGVDIPLTSLHIIG” here?
A: not soluble

Q: With “MSGGGVIRGPAGNNDCRIYVGNLPPDIRTKDIEDVFYKYGAIRDIDLKNRRGGPPFAFVEFEDPRDAEDAVYGRDGYDYDGYRLRVEFPRSGRGTG” as the sequence, how does the “soluble on expression in E. coli” value read?
A: soluble

Q: With “MSGHKCSYPWDLQDRYAQDKSVVNKMQQKYWETKQAFIKATGKKEDEHVVASDADLDAKLELFHSIQRTCLDLSKAIVLYQKRICFLSQEENELGKFLRSQGFQDKTRAGKMMQATGKALCFSSQQRLALRNPLCRFHQEVETFRHRAISDTWLTVNRMEQCRTEYRGALLWMKDVSQELDPDLYKQMEKFRKVQTQVRLAKKNFDKLKMDVCQKVDLLGASRCNLLSHMLATYQTTLLHFWEKTSHTMAAIHESFKGYQPYEFTTLKVWKLEGPLENLEKSKVLFISQAKSIAESIIIPGLRMLKRELCPQQSLFLSFFLFFYCIRIQYNENLLQSKSAN” as the sequence, how does the “soluble on expression in E. coli” value read?
A: soluble

Q: Which “soluble on expression in E. coli” value does the source give for “MSGLPQGRPTFGAAQNVSAVVAYDLSAHMLDVVAQAAEARQLKNITTRQGYAESLPFADNAFDIVISRYSAHHWHDVGAALREVNRILKPGGRLIVMDVMSPGHPVRDIWLQTVEALRDTSHVRNYASGEWLTLINEANLIVDNLITDKLPLEFSSWVARMRTPEALVDAIRIYQQSASTEVRTYFALQNDGFFTSDIIMVDAHKAALEHHHHHH” here?
A: not soluble

Q: With “MSGLSMRNPERRIETNPFDVDAWNLLLREHQSRPIDQERDFYESLVKQFPNSGRYWKAYIEHELRSKNFENVEKLFSRCLVSVLNIDLWKCYIHYVFETKGQRDQYREEMAKAYDFALEKVGMDVQAYSIFTEYIAFLKKVPAVGQYAENQRITAVRKIYQKALATPMHNLELIWNDYCTYEKAINITLAEKLIAERGKEYQNARRVEKDLQQMTRGLNRQAVSVPPKGTATEFKQVELWKNLIAWEKTNPLQTEEYGQHARRVVYTYEQSLLCLGYYPDIWYEAAMFLQEASHTLDEKGDVKMAQVLKLETISLYERAITGLMKESKLLYFAYADFQEEHKQFEAVKNIYDRLLGIEHINPTLTYVQLMRFIRRSEGPNNARLVFKRAREDKRTGYQVFVAAALLEYNCMKDKEVAIRVFKLGLKKYENEPEFGLAYADFLSNLNEDNNTRVVFERILTSSKLPADKSIRIWDRFLDFESCVGDLASILKVEKRRKTAYEEAQKDQTMNHSMLVIDRYKFMDLMPCSGEQLKLIGYNALKGTESIAGPSFVGSKNVPTHGPQAASAIMGGAGGHADVARYGFPRPDISQMIPFKPRVNCTASFHPVPGGVFPPPQSVAHLMSLLPPPTCFIGPFINVELLCNMINNMQLPNVSYPKSEDNMLGPMLEQDVKKDMYQLLATTSDPSAVVRSSALSDLKRKRGDSDDEEDYSHLGAVIGSLGSRDAYKRRMNKKNE” as the sequence, how does the “soluble on expression in E. coli” value read?
A: not soluble

Q: For “MSGPEELEAGASDSNAGGSSRQGQEQERVEPVLEGVPQPNDQESADEDLTARQPPIQPQVPNASDNLQVPPNLEYLIAVNPSQLITTIQIGAEVARLEELEDEYRQELELIRMTESLGEELLQKENELRSRAGYLGRLDVLENRRNYEDEAAENLAIRTVQNRVLLLRRARAELYERERIARKTFIWRLRRFKNPTDQSVNTWMETLNDRLNRVANSWERRREPHEQAIRDYERLVATRQRTEEDRRRERASNRAGPSNQEDYDSEDEDEHHVDELPDLLELLSLVVNPVIGGGGISTNRAEYLNPRGTEGLGADDPDLNDSGGTVYQSDEEESEDEAEIDHQEGPSNWRPKRPRRDDDEGGSGSSASMWNAPSTSSQALGRSC”, which “soluble on expression in E. coli” value is on record?
A: not soluble

Q: With “MSGRSVRAETRSRAKDDIKKVMAATERVRRWEKKWVTVGDTSLRIFKWVPVTETKQIYKPKGAGPAVRELKGFPTDVVLENARSVLLDFQDDNSNQSFLSDAYQSNTKVDSSSNSSPQHVSEAVSPSHPPYYRTEDSQPPTLGQESMEAEREASTTSSEVTDEPPTLIKEDVLSLSTQEEEEAIGAPPLKRVCTEHNSTVS” as the sequence, how does the “soluble on expression in E. coli” value read?
A: not soluble

Q: With “MSGSGMTPMLQATPEQARTLGAEEPIRPGQDRLAHAPADHPELPQPKIGILLANLGTPDNYDYWSMRRYLNEFLSDKRVIDYPAWKWQPLLQILILSKRPFSSGANYKLIWNHDKGESPLMTITKDQTAAIAAEIRSLYGNRVMVDFCMRYGNPSTESRVRAMVEAGCEKILFFPLYPHYAGATSATANDEFFRAMMKEKRQPAVRTVPEYYDNPLYIDALAQSVERAYAQLDHRPDVLVASYHGMPKRYLMAGDPYHCQCAKTSRLLRERLGWEKGAIDTTFQSVFGPEEWLKPYTVEHVAELARAGKKRIAVIAPAFSADCIETLEEINGEIREAFEEAGGEEFTYIPCLNDDEAHIRALVSVIEDNLAGWLARG” as the sequence, how does the “soluble on expression in E. coli” value read?
A: not soluble

Q: With “MSGSVSGCGSGGCSIVWFRRDLRVEDNPALAAAVRAGPVIALFVWAPEEEGHYHPGRVSRWWLKNSLAQLDSSLRSLGTCLITKRSTDSVASLLDVVKSTGASQIFFNHLYDPLSLVRDHRAKDVLTAQGIAVRSFNADLLYEPWEVTDELGRPFSMFAAFWERCLSMPYDPESPLLPPKKIISGDVSKCVADPLVFEDDSEKGSNALLARAWSPGWSNGDKALTTFINGPLLEYSKNRRKADSATTSFLSPHLHFGEVSVRKVFHLVRIKQVAWANEGNEAGEESVNLFLKSIGLREYSRYISFNHPYSHERPLLGHLKFFPWAVDENYFKAWRQGRTGYPLVDAGMRELWATGWLHDRIRVVVSSFFVKVLQLPWRWGMKYFWDTLLDADLESDALGWQYITGTLPDSREFDRIDNPQFEGYKFDPNGEYVRRWLPELSRLPTDWIHHPWNAPESVLQAAGIELGSNYPLPIVGLDEAKARLHEALSQMWQLEAASRAAIENGSEEG” as the sequence, how does the “soluble on expression in E. coli” value read?
A: soluble

Q: For “MSHGDQLEQYQDQYFDCIKKYDMPAALEVLELIAESCIELNDDDPLIEACERGASYLKCCLKYENLVNLHASQKINDHTLFFLNLEVRRRSTYQCFATTRSFLTPHRKRQLAKTMNAEPRIFAFGLNANNNLGVDTVQSALVDVPTEIYVPPVYEMKMSNFHSVFWCHDGKFFGCGETKNFMISKPDSELPRIVKFPMELDIQIWRNEMIVGIKALENGTLFQTDRRLYFVGDYQKSKAYLKTFHDEEFDMVTQLPYATPNFWITQSRPVSSISAYKLDDKKNVTILRVKSVSYWIQVYPDYWTELNPGYIKKRPVVYLLDDVEVKNIRIETVGCNIIYVVHELTLYFGKMTMTMVENSDGDENNLDNYILFVELHEYRTRSPYLCTGVATNKAQGVLMKCGDFPCVGFDYLEIAENRFRGNVQKYMFETVEKFMESYDVFENDEVSMDYLLSETEKAFNSGVMEQEIKLDWLGRTEKKYRYSNFYSFLGYVSQPRLLTGPPKCFTTDIDTLLTYKDPKLVARHRMKQLFEEFERVNYPGTDVWKPTGFLKSHDIPEEDNLSEGRYRSAAMKWCVNEFMEQFNVYRENPVFNPDNLVYKEILKYLINVIWYALDQWIIITEKTENDRVAPLLREIEHKVPDDEILFQTVYPEKILENRLREGSLKMEDLPEPLNIRVTFLLRHRDPKLKPTRFNLNTCRTFFNFLYPALEDFIDENNVLDLNKLYPDDVAIHRLIAQTYFVGHGLTDLEGSEKYDRSVYDSKGVRLEPMVRFMRKGREHFRGFLRRVPSTSAPGDGPIVFPTADHQAFFKMQRVLYSRLPLTEKLPIDIEDDLYSAAIVGLQDKRVLEVLTMDEKLRILEWYEKAKMPEALMDLLKQCIIESTSKNYYHIRYLFSQYPIMTQRFIAQYRPGIILWHRSPIPNPQIHHVRIITEMWPKNDFERTTRIPRKKFIKNGIVEDSKFYMIGSYLRRDAYKDIHYPAQKTTKLTELFNIDFPVNGPKKSKNQMMLITFPSREIVEEEEPPQEAEQSPSPDPEKIAKRREELRKKIAEKLAASKKKKKR”, which “soluble on expression in E. coli” value is on record?
A: not soluble

Q: With “MSHIQRETSCSRPRLNSNLDADLYGYRWARDNVGQSGATIYRLYGKPNAPELFLKHGKGSVANDVTDEMVRLNWLTAFMPLPTIKHFIRTPDDAWLLTTAIPGKTAFQVLEEYPDSGENIVDALAVFLRRLHSIPVCNCPFNSDRVFRLAQAQSRMNNGLVDASDFDDERNGWPVEQVWKEMHKLLPFSPDSVVTHGDFSLDNLIFDEGKLIGCIDVGRVGIADRYQDLAILWNCLGEFSPSLQKRLFQKYGIDNPDMNKLQFHLMLDEFF” as the sequence, how does the “soluble on expression in E. coli” value read?
A: soluble

Q: With “MSHLALKDLFSGFFVIDDEEEVEVPDKQQQVNEAPAKEQSQQTTKQNAIKSVPQKSASRYTTTSEERNNRMSNYSKNNSRNVVTMNNATPNNASQESSKMCLFEPRVFSDTQDIADELKNRRATLVNLQRIDKVSAKRIIDFLSGTVYAIGGDIQRVGTDIFLCTPDNVEVAGSITDHIENMEHSFDLEHHHHHH” as the sequence, how does the “soluble on expression in E. coli” value read?
A: not soluble

Q: For “MSHSEAGQAASVRRVLAVIPARGGSKGVPAKNLLPVGGVPLVARAVRECRATRLVTDVVVSTDDHAIAAAAREAGAEVVLRPAAIAGDTATSEAAVLHAMDTHEALHGAAVDVVLLVQCTSPFIVREDVDGVVHAIVGKGADTALTVAPFHGFVWRDADDAPGALGAERAAVEGGTDTLVTGTATSGGYGINHDKSFRPRRQDRPQDLLETGAVYGMDATGFREARHRFFGRTELVRTDPARVLEIDDPHDLARARALAPLFDANRPGALPTAEDIDAVVLDFDGTQTDDRVLIDSDGREFVSVHRGDGLGIAALRKSGLTMLILSTEQNPVVAARARKLKIPVLHGIDRKDLALKQWCEEQGIAPERVLYVGNDVNDLPCFALVGWPVAVASAHDVVRGAARAVTTVPGGDGAIREIASWILGPSLDSLDKLEHHHHHH”, which “soluble on expression in E. coli” value is on record?
A: not soluble

Q: For “MSHSQRGLNWFNALSADASEVTGLPASLKVADGLLGEQPVRFVAVIADTNNRFPRARQGEVGLLEGWGLAKAVDDAIEQDRERAEKRALIAIVDVPSQAYGRREEALGIHQALAGAVDSYARARLAGHPVIGLLVGKAMSGAFLAHGYQANRLIALRDPGVMVHAMGKASAARVTQRSVDDLEKLAASIAPMAYDIDSYASLGLLWETLSVSQIEQPAVDDLTQVRQVLSSAIKDVQASGVDLSSRLGASNRKASAHVRQLLRAQW”, which “soluble on expression in E. coli” value is on record?
A: not soluble
